Assay results taken from the Immune Epitope Database (IEDB).

Tests used:
HLA-A*68:02 = experiment: IEDB peptide-MHC binding, purified MHC/competitive/radioactivity; filed as Kd, often an IC50 or EC50 that approximates it; ≥ and ≤ were set here for values at or beyond the usual limits of such assays
HLA-B*40:01 = experiment: IEDB peptide-MHC binding, purified MHC/direct/fluorescence; filed as Kd, often an IC50 or EC50 that approximates it; ≥ and ≤ were set here for values at or beyond the usual limits of such assays; settings: source organism: Francisella tularensis subsp. holarctica LVS
HLA-B*18:01 = experiment: as above
HLA-B*48:01 = experiment: as above
HLA-A*26:01 [1] = experiment: IEDB peptide-MHC binding, purified MHC/competitive/radioactivity; filed as Kd, often an IC50 or EC50 that approximates it; ≥ and ≤ were set here for values at or beyond the usual limits of such assays; settings: source organism: Dengue virus 4 Philippines/H241/1956
HLA-A*11:01 [2] = experiment: IEDB peptide-MHC binding, purified MHC/competitive/fluorescence; ≥ and ≤ were set here for values at or beyond the usual limits of such assays
HLA-A*01:01 = experiment: IEDB peptide-MHC binding, purified MHC/competitive/radioactivity; filed as Kd, often an IC50 or EC50 that approximates it; ≥ and ≤ were set here for values at or beyond the usual limits of such assays; settings: source organism: Dengue virus 4 Philippines/H241/1956
HLA-A*02:01 [3] = experiment: IEDB peptide-MHC binding, purified MHC/competitive/fluorescence; ≥ and ≤ were set here for values at or beyond the usual limits of such assays
HLA-A*24:02 = experiment: as above; settings: source organism: Zaire ebolavirus
HLA-A*29:02 = experiment: IEDB peptide-MHC binding, purified MHC/competitive/fluorescence; filed as Kd, often an IC50 or EC50 that approximates it; ≥ and ≤ were set here for values at or beyond the usual limits of such assays
HLA-A*02:03 = experiment: IEDB peptide-MHC binding, purified MHC/competitive/radioactivity; filed as Kd, often an IC50 or EC50 that approximates it; ≥ and ≤ were set here for values at or beyond the usual limits of such assays
HLA-A*02:01 [4] = experiment: as above; settings: source organism: Vaccinia virus WR
HLA-B*07:02 = experiment: as above
HLA-A*31:01 = experiment: as above
HLA-A*68:01 = experiment: as above
HLA-B*54:01 = experiment: as above
HLA-B*53:01 = experiment: as above
HLA-A*02:02 = experiment: as above
HLA-A*11:01 [5] = experiment: as above
HLA-A*33:01 = experiment: as above
HLA-A*03:01 [6] = experiment: as above
HLA-B*51:01 = experiment: as above
HLA-B*35:01 = experiment: as above
HLA-A*02:06 = experiment: as above
HLA-A*03:01 [7] = experiment: IEDB peptide-MHC binding, purified MHC/competitive/fluorescence; ≥ and ≤ were set here for values at or beyond the usual limits of such assays
HLA-A*26:01 [8] = experiment: IEDB peptide-MHC binding, purified MHC/direct/fluorescence; filed as Kd, often an IC50 or EC50 that approximates it; ≥ and ≤ were set here for values at or beyond the usual limits of such assays; settings: source organism: Mammarenavirus amapariense
[9] = source organism: Dengue virus 4 Philippines/H241/1956
[10] = source organism: Zaire ebolavirus
[11] = source organism: Vaccinia virus WR
[12] = source organism: Vaccinia virus Copenhagen
[13] = source organism: Dengue virus 1 Brazil/97-11/1997
[14] = source organism: SARS coronavirus Tor2
[15] = source organism: Sudan ebolavirus
[16] = source organism: Dengue virus 2 Jamaica/1409/1983
[17] = source organism: Mammarenavirus lassaense

EVLTLATGPV
Kd (HLA-A*68:02; [9]): 0.0235 µM

AEVCAHHLF
Kd (HLA-B*40:01): 0.0035 µM | Kd (HLA-B*18:01; source organism: Francisella tularensis subsp. holarctica LVS): 0.0036 µM

AEWGWTATM
Kd (HLA-B*48:01; source organism: Giardia lamblia ATCC 50803): ≥ 20 µM

ETALMVIGM
Kd (HLA-A*26:01 [1]): 0.308 µM | Kd (HLA-A*68:02; [9]): 0.0105 µM

SGTEKEFLR
IC50 (HLA-A*11:01 [2]; source organism: Vaccinia virus): ≥ 412 µM

NLPIYSEEIV
Kd (HLA-A*68:02; source organism: Homo sapiens): 0.982 µM

ETFSMGLLCL
Kd (HLA-A*26:01 [1]): 0.289 µM | Kd (HLA-A*68:02; [9]): 0.00659 µM | Kd (HLA-A*01:01): 7.33 µM

YKLDISEAT
IC50 (HLA-A*02:01 [3]; [10]): ≥ 158 µM | IC50 (HLA-A*24:02): 29.8 µM | IC50 (HLA-A*11:01 [2]; [10]): ≥ 139 µM

VDFGIIWRY
Kd (HLA-A*29:02; source organism: Vibrio cholerae 2740-80): 0.1 µM

AFVRFSTDK
Kd (HLA-A*02:03; [11]): ≥ 78.1 µM | Kd (HLA-A*02:01 [4]): ≥ 78.1 µM | Kd (HLA-B*07:02; [11]): ≥ 77.5 µM | Kd (HLA-A*31:01; [11]): 3.1 µM | Kd (HLA-A*68:01; [11]): ≥ 57.7 µM | Kd (HLA-B*54:01; [11]): ≥ 78.1 µM | Kd (HLA-B*53:01; [11]): ≥ 78.2 µM | Kd (HLA-A*02:02; [11]): ≥ 77.8 µM | Kd (HLA-A*11:01 [5]; [11]): 8.6 µM | Kd (HLA-A*33:01; [11]): ≥ 77.7 µM | Kd (HLA-A*03:01 [6]; [11]): ≥ 25.4 µM | Kd (HLA-B*51:01; [11]): ≥ 77.5 µM | Kd (HLA-B*35:01; [11]): ≥ 33.9 µM | Kd (HLA-A*68:02; [11]): ≥ 76.9 µM | Kd (HLA-A*02:06; [11]): ≥ 77.1 µM

LLPAVSSGK
IC50 (HLA-A*02:01 [3]; [10]): ≥ 73.6 µM | IC50 (HLA-A*24:02): ≥ 79.6 µM | IC50 (HLA-A*11:01 [2]; [10]): 3.64 µM | IC50 (HLA-A*03:01 [7]; [10]): 1.9 µM

RKNGGNFLL
Kd (HLA-B*48:01; source organism: Campylobacter jejuni subsp. jejuni 81116): 0.145 µM

STIGYALKH
Kd (HLA-A*29:02; source organism: Bacillus anthracis str. CDC 684): 0.0394 µM

KLYKNKSKQ
IC50 (HLA-A*02:01 [3]; [12]): ≥ 81.8 µM | IC50 (HLA-A*11:01 [2]; [12]): ≥ 1360 µM | IC50 (HLA-A*03:01 [7]; [12]): 3.01 µM

KFYSKISEY
IC50 (HLA-A*03:01 [7]; source organism: Human papillomavirus 16): 3 µM

NAICSAVPV
Kd (HLA-A*68:02; [13]): 0.00319 µM

GSIGGVFTSV
Kd (HLA-A*68:02; [13]): 0.0201 µM

STSDGKHLQ
Kd (HLA-A*29:02; source organism: Cryptosporidium parvum Iowa II): 0.284 µM

YDPARYPLY
Kd (HLA-A*29:02; source organism: Vibrio vulnificus YJ016): 0.0305 µM

LPFHRWHTM
Kd (HLA-B*07:02; [14]): 0.0084 µM | Kd (HLA-B*54:01; [14]): 0.274 µM | Kd (HLA-B*53:01; [14]): 0.1 µM | Kd (HLA-B*51:01; [14]): 0.0111 µM | Kd (HLA-B*35:01; [14]): 0.00716 µM

GLSLLQLPR
IC50 (HLA-A*02:01 [3]; [15]): 16.8 µM | IC50 (HLA-A*11:01 [2]; [15]): 3.53 µM | IC50 (HLA-A*03:01 [7]; [15]): 2.19 µM

DEYQGNHMF
Kd (HLA-B*18:01; source organism: Vibrio parahaemolyticus): 0.0006 µM

MPYVFTLLF
Kd (HLA-B*07:02; [14]): 0.109 µM | Kd (HLA-B*54:01; [14]): 0.0306 µM | Kd (HLA-B*53:01; [14]): 0.000124 µM | Kd (HLA-B*51:01; [14]): 0.00407 µM | Kd (HLA-B*35:01; [14]): 0.00059 µM

CSAVPSHWV
Kd (HLA-A*68:02; [16]): 0.00921 µM

FPYIMGSVEL
Kd (HLA-B*07:02; [17]): 0.241 µM | Kd (HLA-B*54:01; [17]): 0.155 µM | Kd (HLA-B*53:01; [17]): 0.0802 µM | Kd (HLA-B*51:01; [17]): 0.368 µM | Kd (HLA-B*35:01; [17]): 0.0124 µM

EKPGNRNPY
Kd (HLA-A*26:01 [8]): 2.78 µM

HSIENSSVNV
Kd (HLA-A*68:02; [16]): 0.0309 µM

LMDSIFVST
Kd (HLA-A*02:03; [12]): 0.232 µM | Kd (HLA-B*07:02; [12]): ≥ 77.5 µM | Kd (HLA-A*31:01; [12]): ≥ 36 µM | Kd (HLA-A*68:01; [12]): ≥ 77.7 µM | Kd (HLA-B*54:01; [12]): 5.2 µM | Kd (HLA-B*53:01; [12]): ≥ 78.2 µM | Kd (HLA-A*02:02; [12]): 0.000343 µM | Kd (HLA-A*11:01 [5]; [12]): ≥ 77.9 µM | Kd (HLA-A*33:01; [12]): ≥ 55.3 µM | Kd (HLA-A*03:01 [6]; [12]): ≥ 78 µM | Kd (HLA-B*51:01; [12]): ≥ 77.5 µM | Kd (HLA-B*35:01; [12]): ≥ 77.4 µM | Kd (HLA-A*68:02; [12]): 1.79 µM | Kd (HLA-A*02:06; [12]): 0.0312 µM
